Experiment [1] addresses T1, hu-S-IL1RAP construct, positions S21-Q356 (soluble human IL1RAP) (human, UniProt Q9NPH3 21-350).
T1 sequence: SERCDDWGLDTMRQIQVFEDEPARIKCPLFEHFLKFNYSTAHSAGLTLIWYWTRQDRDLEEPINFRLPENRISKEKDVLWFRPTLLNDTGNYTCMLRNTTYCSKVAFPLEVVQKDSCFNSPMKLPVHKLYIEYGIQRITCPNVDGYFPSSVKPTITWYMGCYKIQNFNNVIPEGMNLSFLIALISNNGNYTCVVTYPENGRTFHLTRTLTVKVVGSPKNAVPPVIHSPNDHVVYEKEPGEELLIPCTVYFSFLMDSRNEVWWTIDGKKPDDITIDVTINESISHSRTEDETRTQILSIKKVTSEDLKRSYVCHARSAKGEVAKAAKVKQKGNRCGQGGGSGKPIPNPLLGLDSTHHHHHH
As to the kind of experiment: ELISA, purified mAb. A general note: An ELISA detects its analyte on a solid surface through an enzyme-linked reagent.
Method: (§1) After removing the coating solution, unspecific binding was blocked by adding 200 μL of assay/blocking solution containing 1% bovine serum albumin (BSA) in phosphate buffered saline (PBS) pH 7.4 (ELISA diluent) and incubation at room temperature for one hour with agitation or overnight at 4° C. without agitation. Plates were then washed three times with 300 μL of PBS, 0.05% TWEEN®-20 (wash buffer). 100 μL of culture supernatant from individual hybridoma clones (or purified antibodies at the indicated concentration) was added to individual wells followed by incubation at room temperature for one hour with agitation. […] The plate was incubated at room temperature for one hour with agitation, washed six times with wash buffer and developed for 3-10 minutes by adding 50 μL/well of tetramethylbenzidine (TMB) microwell peroxidase substrate (Scytek Laboratories, Inc., Logan, UT, USA; catalogue number TM1999).

In experiment [2] the target is T2, mu-M-IL1RAP construct, positions S21-T367 (mouse, UniProt Q61730 21-367).
T2 construct: also called mo-M-IL1RAP; mouse-M-IL1RAP
T2 sequence: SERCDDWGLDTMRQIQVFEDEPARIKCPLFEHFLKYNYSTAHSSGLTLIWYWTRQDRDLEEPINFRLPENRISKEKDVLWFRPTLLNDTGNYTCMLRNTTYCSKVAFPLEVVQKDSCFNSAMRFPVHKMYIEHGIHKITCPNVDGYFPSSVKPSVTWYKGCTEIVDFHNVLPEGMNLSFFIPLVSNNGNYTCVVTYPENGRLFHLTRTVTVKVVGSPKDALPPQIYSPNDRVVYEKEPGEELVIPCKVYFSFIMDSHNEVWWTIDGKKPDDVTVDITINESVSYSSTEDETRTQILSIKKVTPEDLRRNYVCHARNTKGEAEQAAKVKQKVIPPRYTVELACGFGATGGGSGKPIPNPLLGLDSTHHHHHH
As to the kind of experiment: ELISA, purified mAb.
Method: as §1

Experiment [3] deals with T3, cyno-M-IL1RAP construct, positions S21-T367 (cynomolgus monkey, UniProt P59822 21-367 (rhesus entry)).
T3 construct: Biotinylated when captured on the Biacore chip; also called cy-M-IL1RAP
T3 sequence: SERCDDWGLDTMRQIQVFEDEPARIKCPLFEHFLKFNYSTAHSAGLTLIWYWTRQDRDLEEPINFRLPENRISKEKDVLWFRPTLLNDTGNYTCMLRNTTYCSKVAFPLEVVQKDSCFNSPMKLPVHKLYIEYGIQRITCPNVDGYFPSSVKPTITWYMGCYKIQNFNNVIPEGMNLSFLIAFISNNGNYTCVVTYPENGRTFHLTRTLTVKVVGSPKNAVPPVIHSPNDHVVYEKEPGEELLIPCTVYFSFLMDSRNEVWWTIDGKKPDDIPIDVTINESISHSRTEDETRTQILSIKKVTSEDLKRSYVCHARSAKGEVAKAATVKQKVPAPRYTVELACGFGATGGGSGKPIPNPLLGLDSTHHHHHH
The experiment in a line: ELISA, purified mAb.
Method: as §1

Experiment [4] deals with T4, hu-M-IL1RAP construct, positions S21-T367 (extracellular domain of the membrane form of human IL1RAP) (human, UniProt Q9NPH3 21-367).
T4 construct: Biotinylated when captured on the Biacore chip
T4 sequence: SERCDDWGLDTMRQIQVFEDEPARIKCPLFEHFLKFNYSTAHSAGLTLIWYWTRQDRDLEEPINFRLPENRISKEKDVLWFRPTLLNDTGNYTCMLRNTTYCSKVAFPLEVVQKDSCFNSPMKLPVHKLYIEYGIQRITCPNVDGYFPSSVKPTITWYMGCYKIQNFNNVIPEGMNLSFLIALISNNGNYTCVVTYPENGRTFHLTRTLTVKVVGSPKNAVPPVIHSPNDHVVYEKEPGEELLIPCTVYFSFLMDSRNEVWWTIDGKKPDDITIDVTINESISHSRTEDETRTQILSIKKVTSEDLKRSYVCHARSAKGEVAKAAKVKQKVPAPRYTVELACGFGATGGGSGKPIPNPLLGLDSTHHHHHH
The experiment in a line: ELISA, purified mAb.
Method: as §1

In experiment [5] the target is T4, hu-M-IL1RAP construct, positions …. As to the kind of experiment: ELISA, mAb at 10 nM.
Method: as §1
(§2) Binding domain mapping: Binding domain mapping of the 15 purified antibodies was carried out using the above-described ELISA assay with the following IL1RAP polypeptide constructs coated at 1 μg/ml on the assay plates: hu-M-IL1RAP, hu-M-IL1RAP-D1, hu-M-IL1RAP-D1D2, and hu-M-IL1RAP-D3.
The target of experiment [6] is T5, hu-M-IL1RAP-D3 construct, positions K238-T367 (human).
T5 chain: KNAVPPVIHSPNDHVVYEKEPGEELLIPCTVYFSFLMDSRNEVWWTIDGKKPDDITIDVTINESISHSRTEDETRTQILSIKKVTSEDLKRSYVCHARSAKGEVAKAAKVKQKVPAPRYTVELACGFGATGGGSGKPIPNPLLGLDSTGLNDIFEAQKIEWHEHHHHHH
The experiment in a line: ELISA, mAb at 10 nM.
Method: as §1, §2

Experiment [7] has as its target T4, hu-M-IL1RAP construct, positions …. As to the kind of experiment: ELISA, hybridoma supernatant.
Method: as §1
For experiment [8], the target named is T6, human IL1RAP (hu-IL1RAP) on human cells (human, UniProt Q9NPH3 21-570).
T6 sequence: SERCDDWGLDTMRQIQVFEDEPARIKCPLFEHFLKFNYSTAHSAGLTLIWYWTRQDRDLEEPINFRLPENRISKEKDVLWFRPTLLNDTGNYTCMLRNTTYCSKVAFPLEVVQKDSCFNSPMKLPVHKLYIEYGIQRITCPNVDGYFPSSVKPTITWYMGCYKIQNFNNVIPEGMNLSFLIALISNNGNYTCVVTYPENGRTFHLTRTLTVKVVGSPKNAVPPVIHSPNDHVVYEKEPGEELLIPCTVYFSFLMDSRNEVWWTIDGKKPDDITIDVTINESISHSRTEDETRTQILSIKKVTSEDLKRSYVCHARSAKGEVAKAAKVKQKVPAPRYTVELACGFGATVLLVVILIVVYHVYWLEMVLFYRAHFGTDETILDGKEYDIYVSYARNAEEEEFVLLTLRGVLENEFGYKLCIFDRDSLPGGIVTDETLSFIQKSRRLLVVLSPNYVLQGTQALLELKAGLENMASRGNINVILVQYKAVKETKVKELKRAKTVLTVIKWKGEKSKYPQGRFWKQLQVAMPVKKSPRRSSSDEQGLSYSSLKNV
As to the kind of experiment: cell-based or functional assay.

The target in experiment [9] is T6, human IL1RAP (hu-IL1RAP) on human cells. The experiment in a line: cell-based or functional assay. The source holds these as a separate data set.
The target in experiment [10] is T3, cyno-M-IL1RAP construct, positions …. The experiment in a line: BLI (OCTET), mAb on AMC sensor, 25 C.
Method: (§3) The BLI experimental format immobilizes the antibody on a biolayer surface with the IL1RAP antigen in solution. […] All samples were placed in black 96-well plates and the experiment was performed at 25° C. […] The biosensors were equilibrated in experimental buffer at 25° C. for ten minutes prior to starting the experiment.
(§4) The kinetics experiment was performed with the following steps, where the step name, solution and time are listed: Baseline (buffer—60 seconds), Loading (antibody—200 seconds), Baseline 2 (buffer—minimum 120 seconds), Association (analyte—200-300 seconds) and Dissociation (buffer—1000 seconds). The BLI signal resulting from analyte association and dissociation of the antigens from the immobilized antibody was analyzed using the OCTET® Data Analysis software (Pall ForteBio). First, a reference subtraction was performed on all recorded traces using the reference well (biosensor that underwent the same steps as experimental wells but no analyte for the Association step), then all the traces were aligned to the beginning of the Association step.
Experiment [11] has as its target T4, hu-M-IL1RAP construct, positions …. The experiment in a line: BLI (OCTET), mAb on AMC sensor, 25 C.
Method: as §3, §4
The target of experiment [12] is T6, human IL1RAP (hu-IL1RAP) on human cells. As to the kind of experiment: cell-based or functional assay. The source holds these as a separate data set.

B1: 10A11 (purified mAb from hybridoma 10A11) (antibody, V domains shown)
VH: EVQLQQSGAELVKPGASVRLSCTSSGFNIKDYFMHWVKQRTEQGLEWVGRIDPEDGETQYAPNFQDKATITVDTSSNTVYLQLSSLTSEDTAVYYCFRPLYYGNSPWFAYWGQGTLVTVSP
VL: DIQMTQTTSSLSASLGDRVTISCRASQDISNYLNWYQQKPDGTVKLLIYYTSTLHSGVPSRFSGSGSGTDYSLTISNLEPEDIATYYCHQYSKFPPTFGSGTKLEIK
notes: Mouse hybridoma mAb
Turning to B1, the EC50 – broadly, the concentration that produces a half-maximal response – in experiment [1] was determined as 0.035 nM; in experiment [3], 0.032 nM; in experiment [4], 0.039 nM. The binding result in experiment [2] is given as “no binding (tested: 20 nM (highest tested))”. Moreover, the values for the A450 in experiment [5], in [6] and in experiment [7] were 1.18 A450, 1.4 A450 and 0.99 A450, respectively. In addition, in [8], the “HEK-Blue, IL-1β, % inhibition at 100 nM” value was 72%. For the same molecule, in experiment [8], the “HEK-Blue, IL-33, % inhibition at 100 nM” value amounted to 56%. Besides, the “HEK-Blue SEAP, IL-1β, % inhibition (supernatant)” value in [9] amounted to 53%. Besides, the “HEK-Blue SEAP, IL-33, % inhibition (supernatant)” value in experiment [9] was determined as 51%.

B2: 11C5(Hy) (purified mAb from the 11C5 hybridoma) (antibody, V domains shown)
VH: EVQLVESGGGLVKPGGSLKLSCAASGFTFSNYAMSWVRQTPEKRLEWVATVTEGGDYNYCLDDVKGRFTISRDNANDNLYLQMSHLKSEDSARYYCARDRWPYFFDYWGQGTTLTVSS
VL: DIQMTQSPASLSVSVGETVTITCRASENIYSNLAWYQQKQGRSPQLLVYGAKNLADGVPSRFSGSGSGTQYSLNINSLQSEDFGTYYCQHFWTTPRTFGGGTKLEIK
notes: Mouse hybridoma mAb; also called 11C5(Hy) mAb; mAb 11C5(Hy)
In turn, B2 yielded an EC50 in experiment [1] of 0.029 nM. Moreover, the binding result in experiment [2] is listed as “no binding (tested: 20 nM (highest tested))”. Also, the midpoint of the response in experiment [3], the EC50, lay at 0.024 nM. This molecule came in with an EC50 in [4] of 0.026 nM. In experiment [10], the affinity, expressed as Kd, was 0.142 nM; the koff (as a rule, the rate constant with which the complex falls apart) amounted to 5.74e-05 s⁻¹; the kon (commonly a measure of how fast the partners come together) amounted to 413000 M⁻¹ s⁻¹. Further, in experiment [11], binding was put at a Kd of 0.219 nM, the koff stood at 0.000103 s⁻¹ and the kon came out at 469000 M⁻¹ s⁻¹. In addition, in experiment [12], the “HEK-Blue, IL-1α, IC50” value was 4.7 nM; the “HEK-Blue, IL-1β, IC50” value was determined as 1 nM; the “HEK-Blue, IL-33, IC50” value was found to be 3.71 nM; the “HEK-Blue, IL-36α, IC50” value was 2.52 nM. Besides, in experiment [12], the “HEK-Blue, IL-36β, IC50” value was 0.981 nM and the “HEK-Blue, IL-36γ, IC50” value was found to be 0.665 nM. This molecule gave an A450 in experiment [5] of 1.23 A450. The same molecule had an A450 in [6] of 1.44 A450. This molecule showed an A450 in experiment [7] of 1.44 A450. Moreover, in [8], the “HEK-Blue, IL-1β, % inhibition at 100 nM” value worked out at 99% and the “HEK-Blue, IL-33, % inhibition at 100 nM” value was found to be 93%. For the same molecule, in experiment [9], the “HEK-Blue SEAP, IL-1β, % inhibition (supernatant)” value is 84% and the “HEK-Blue SEAP, IL-33, % inhibition (supernatant)” value came out at 65%.

B3: 13D8 (purified mAb from hybridoma 13D8) (antibody, V domains shown)
VH: EVQLVESGGGLVKPGGSLKLSCTASGFTFSNYAMSWVRQTPEKRLEWVATISDGGNYTYYPDNVKGRFTISRDIAKNNLYLQMSHLKSEDTAMYYCARDRWPYFFDFWGQGTTLTVSS
VL: DIQMTQSPASLSVSVGETVTITCRASDNIYSNLAWYQEKQGKSPQLLVYGATNLADGVPSRFSGSGSGTQYSLKINSLQSEDFGSYYCQHFWTTPRSFGGGTKLELK
notes: Mouse hybridoma mAb
With B3, the EC50 in experiment [1] came to 0.035 nM; in [3], 0.032 nM; in experiment [4], 0.039 nM. The binding result in experiment [2] is “no binding (tested: 20 nM (highest tested))”. Further, the A450 in [5] was determined as 1.12 A450; in experiment [6], 1.46 A450; in experiment [7], 1.01 A450. In addition, in experiment [8], the “HEK-Blue, IL-1β, % inhibition at 100 nM” value amounted to 89%. In addition, the “HEK-Blue, IL-33, % inhibition at 100 nM” value in experiment [8] is 69%. Moreover, the “HEK-Blue SEAP, IL-1β, % inhibition (supernatant)” value in [9] worked out at 48%. Further, the “HEK-Blue SEAP, IL-33, % inhibition (supernatant)” value in experiment [9] is 33%.

Source of the values: patent US20260015426A1 (23ANDME, published 2026).
